Source: paper PMC1807944
Where two headings read alike, the source gives them in different places.

Tests used:
Test in all cases: SAXS titration
[1] = target: T1, HIV-1 integrase (IN), monomer E (HIV-1, UniProt P04585 1148-1435)
[2] = target: T1, HIV-1 integrase (IN), monomer E; remark: listed apart in the source
[3] = target: T1, HIV-1 integrase (IN), monomer E; remark: listed apart in the source

## GTGTGGAAAATCTCTAGCA (ssDNA) [ss 19-CA]
[1]
  Kd: 0.03 ± 0.015 µM

## AAAAA (ssDNA) [ss A5]
[2]
  Kd: 2.6 ± 0.4 µM

## GTGTGGAAAATCTCTAGCAGT (ssDNA) [ss 21-GT]
[3]
  Kd: 0.0106 ± 0.01 µM

## GCAGT (ssDNA) [ss GCAGT]
[2]
  Kd: 7.1 ± 0.7 µM
